Tests used:
Test in all cases: cell-based or functional assay
mouse active MMP9 = mouse active MMP9 (mouse, UniProt P41245 108-730, limits assumed)
mouse proMMP9 = mouse proMMP9 (mouse, UniProt P41245 20-730)
[1] = target: Cynomologus monkey (cyno) proMMP9 (Cynomologus monkey)
rat proMMP9 = rat proMMP9 (rat, UniProt P50282 20-708)
[2] = target: human MMP9 (i.e. activated MMP9), catalytically active caspase-cleaved recombinant MMP9 (human, UniProt P14780 107-707)
[3] = target: recombinant human proMMP9 (full length, latent form) (human, UniProt P14780 20-707)
Sequence of recombinant human proMMP9 (full length, latent form) (P14780 20-707): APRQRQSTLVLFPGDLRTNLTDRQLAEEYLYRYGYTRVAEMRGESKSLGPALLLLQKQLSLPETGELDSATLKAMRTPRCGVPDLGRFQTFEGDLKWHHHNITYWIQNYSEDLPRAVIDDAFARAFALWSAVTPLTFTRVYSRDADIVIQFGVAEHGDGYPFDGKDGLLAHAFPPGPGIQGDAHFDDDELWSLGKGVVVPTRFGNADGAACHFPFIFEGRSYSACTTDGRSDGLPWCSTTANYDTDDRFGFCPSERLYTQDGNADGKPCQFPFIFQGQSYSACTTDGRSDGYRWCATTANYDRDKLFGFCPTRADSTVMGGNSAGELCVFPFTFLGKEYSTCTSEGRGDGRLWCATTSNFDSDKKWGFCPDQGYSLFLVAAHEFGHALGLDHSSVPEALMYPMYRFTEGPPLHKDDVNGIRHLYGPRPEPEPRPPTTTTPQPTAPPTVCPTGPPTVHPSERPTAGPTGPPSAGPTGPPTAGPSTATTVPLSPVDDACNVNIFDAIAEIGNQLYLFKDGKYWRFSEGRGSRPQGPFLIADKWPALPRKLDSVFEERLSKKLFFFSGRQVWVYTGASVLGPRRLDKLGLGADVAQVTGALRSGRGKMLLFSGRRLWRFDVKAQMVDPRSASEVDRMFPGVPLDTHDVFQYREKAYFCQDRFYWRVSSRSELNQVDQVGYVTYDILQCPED

Sequence of rat proMMP9 (P50282 20-708): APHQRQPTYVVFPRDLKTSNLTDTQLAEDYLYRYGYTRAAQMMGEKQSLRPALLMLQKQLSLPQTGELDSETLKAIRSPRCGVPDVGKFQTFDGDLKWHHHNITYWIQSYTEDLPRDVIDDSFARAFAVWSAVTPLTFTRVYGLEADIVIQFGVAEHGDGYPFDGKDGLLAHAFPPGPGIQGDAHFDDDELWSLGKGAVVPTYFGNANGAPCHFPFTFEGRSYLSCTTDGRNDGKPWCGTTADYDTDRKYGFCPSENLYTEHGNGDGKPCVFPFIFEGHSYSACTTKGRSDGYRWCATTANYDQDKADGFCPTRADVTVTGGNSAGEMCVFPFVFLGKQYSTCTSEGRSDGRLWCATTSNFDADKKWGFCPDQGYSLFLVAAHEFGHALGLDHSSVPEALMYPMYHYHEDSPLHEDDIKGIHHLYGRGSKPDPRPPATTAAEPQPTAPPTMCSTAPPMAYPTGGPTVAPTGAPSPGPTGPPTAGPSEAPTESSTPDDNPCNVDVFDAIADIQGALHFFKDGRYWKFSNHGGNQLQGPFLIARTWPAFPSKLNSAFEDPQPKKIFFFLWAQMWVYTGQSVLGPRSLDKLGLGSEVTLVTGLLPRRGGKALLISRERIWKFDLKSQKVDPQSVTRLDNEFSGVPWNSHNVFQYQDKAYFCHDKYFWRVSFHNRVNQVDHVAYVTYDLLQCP
Sequence of mouse active MMP9 (P41245 108-730 limits assumed): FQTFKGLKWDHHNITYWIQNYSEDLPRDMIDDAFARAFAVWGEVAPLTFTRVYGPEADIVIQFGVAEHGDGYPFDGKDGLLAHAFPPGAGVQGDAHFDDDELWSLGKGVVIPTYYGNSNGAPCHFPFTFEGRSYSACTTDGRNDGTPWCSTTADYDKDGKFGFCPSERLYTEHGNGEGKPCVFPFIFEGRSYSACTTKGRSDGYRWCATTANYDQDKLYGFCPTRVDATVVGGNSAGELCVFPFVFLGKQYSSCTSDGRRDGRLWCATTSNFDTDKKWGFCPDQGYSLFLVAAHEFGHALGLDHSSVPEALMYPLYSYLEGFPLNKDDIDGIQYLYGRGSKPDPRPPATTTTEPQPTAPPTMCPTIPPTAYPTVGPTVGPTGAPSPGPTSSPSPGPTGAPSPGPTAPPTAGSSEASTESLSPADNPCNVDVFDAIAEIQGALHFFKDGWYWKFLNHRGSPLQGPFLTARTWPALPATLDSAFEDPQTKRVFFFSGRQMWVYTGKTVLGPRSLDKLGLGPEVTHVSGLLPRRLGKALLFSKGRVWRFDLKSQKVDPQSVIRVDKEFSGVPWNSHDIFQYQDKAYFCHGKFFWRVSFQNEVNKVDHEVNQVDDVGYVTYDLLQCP
Sequence of mouse proMMP9 (P41245 20-730): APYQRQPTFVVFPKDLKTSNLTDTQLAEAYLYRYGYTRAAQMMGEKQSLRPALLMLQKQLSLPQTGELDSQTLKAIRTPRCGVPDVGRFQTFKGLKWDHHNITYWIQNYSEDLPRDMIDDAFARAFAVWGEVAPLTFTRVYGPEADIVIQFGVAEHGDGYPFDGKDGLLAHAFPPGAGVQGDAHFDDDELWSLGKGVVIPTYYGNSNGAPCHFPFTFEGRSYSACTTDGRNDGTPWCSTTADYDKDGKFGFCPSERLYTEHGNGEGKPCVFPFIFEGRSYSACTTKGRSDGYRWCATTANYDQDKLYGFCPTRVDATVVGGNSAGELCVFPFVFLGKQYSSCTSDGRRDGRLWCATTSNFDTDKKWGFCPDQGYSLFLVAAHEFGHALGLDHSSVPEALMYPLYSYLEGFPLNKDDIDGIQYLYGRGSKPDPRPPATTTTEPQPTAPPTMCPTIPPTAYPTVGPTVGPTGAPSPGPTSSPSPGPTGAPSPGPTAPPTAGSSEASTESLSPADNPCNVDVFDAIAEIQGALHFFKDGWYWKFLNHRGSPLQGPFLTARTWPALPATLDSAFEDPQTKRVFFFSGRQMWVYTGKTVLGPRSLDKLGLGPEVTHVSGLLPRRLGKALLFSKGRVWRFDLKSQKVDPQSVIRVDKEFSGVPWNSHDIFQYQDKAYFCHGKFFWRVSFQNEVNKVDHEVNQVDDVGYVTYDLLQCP
Sequence of human MMP9 (i.e. activated MMP9), catalytically active caspase-cleaved recombinant MMP9 (P14780 107-707): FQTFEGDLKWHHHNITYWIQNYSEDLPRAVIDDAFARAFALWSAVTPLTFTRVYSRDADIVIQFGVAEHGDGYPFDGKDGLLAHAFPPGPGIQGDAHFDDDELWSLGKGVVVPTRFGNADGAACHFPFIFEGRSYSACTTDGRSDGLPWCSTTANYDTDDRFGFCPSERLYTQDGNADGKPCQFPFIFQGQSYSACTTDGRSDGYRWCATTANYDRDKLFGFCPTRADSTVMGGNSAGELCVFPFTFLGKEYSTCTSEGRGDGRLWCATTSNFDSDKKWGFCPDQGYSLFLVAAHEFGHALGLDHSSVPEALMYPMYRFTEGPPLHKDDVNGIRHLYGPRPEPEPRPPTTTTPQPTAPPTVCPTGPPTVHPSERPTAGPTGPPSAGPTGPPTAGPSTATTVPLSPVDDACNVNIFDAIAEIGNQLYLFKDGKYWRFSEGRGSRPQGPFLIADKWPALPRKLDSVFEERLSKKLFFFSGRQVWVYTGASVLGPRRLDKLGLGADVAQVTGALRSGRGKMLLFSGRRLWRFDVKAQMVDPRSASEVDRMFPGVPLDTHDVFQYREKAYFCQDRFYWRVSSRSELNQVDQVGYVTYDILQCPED

Row | Binder | Efficacy, MMP9 gelatin assay (mouse active MMP9) [%] | IC50 (nM), MMP9 gelatin assay (mouse active MMP9) [nM] | Efficacy, MMP3/MMP9 gelatin assay (mouse proMMP9) [%] | IC50 (nM), MMP3/MMP9 gelatin assay (mouse proMMP9) [nM] | Efficacy, MMP3/MMP9 gelatin assay [1] [%] | IC50 (nM), MMP3/MMP9 gelatin assay [1] [nM] | Efficacy, MMP3/MMP9 gelatin assay (rat proMMP9) [%] | IC50 (nM), MMP3/MMP9 gelatin assay (rat proMMP9) [nM] | Efficacy, DQ-gelatin digestion, MMP9 assay [2] [%] | IC50 (nM), DQ-gelatin digestion, MMP9 assay [2] [nM] | Efficacy, DQ-gelatin digestion, MMP3/MMP9 assay [3] [%] | IC50 (nM), DQ-gelatin digestion, MMP3/MMP9 assay [3] [nM]
1 | F20-VH-GL1-V1-V9/B08-VL-GL6c (antibody, human IgG4 S228P, V domains shown) VH: EVQLVESGGGLVQPGRSLRLSCAASGFTFNDYPMHWVRQAPGKGLEWVSGISSQSGSVGYAESVKGRFTISRDNAKNSLYLQMNSLRAEDTALYYCARDKIYYGSGSYDFYYYYGMDVWGQGTTVTVSS VL: QSALTQPASVSGSPGQSITISCTGTSNDVGAYNRVSWYQQHPGKAPKLMIYGVSNRPSGVSNRFSGSKSGNTASLTISGLQAEDEADFYCTSYSSSTTSYVVFGGGTKVTVL | 100 | 1.2 | 100 | 7.69 | 100 | 15.8 | 100 | 7.77 | 100 | 2.64 | 100 | 23.7
2 | F20-VH-GL1-V1-V9-V14/B08-VL-GL6c (antibody, human IgG4 S228P, V domains shown) VH: EVQLVESGGGLVQPGRSLRLSCAASGFTFNDYPMHWVRQAPGKGLEWVSGISSQSGSVGYAESVKGRFTISRDNAKNSLYLQMNSLRAEDTALYYCARDKIYYGSGSYDFYYYYGIDVWGQGTTVTVSS VL: QSALTQPASVSGSPGQSITISCTGTSNDVGAYNRVSWYQQHPGKAPKLMIYGVSNRPSGVSNRFSGSKSGNTASLTISGLQAEDEADFYCTSYSSSTTSYVVFGGGTKVTVL | 100 | 1.91 | 100 | 11.1 | 100 | 27.6 | 100 | 12.3 | 100 | 3.86 | 100 | 38.1
3 | F20-VH-GL1-V4-V9-V14/B08-VL-GL6c (antibody, human IgG4 S228P, V domains shown) VH: EVQLVESGGGLVQPGRSLRLSCAASGFTFNDYPMHWVRQAPGKGLEWVSGISSRSGSVGYAESVKGRFTISRDNAKNSLYLQMNSLRAEDTALYYCARDKIYYGSGSYDFYYYYGIDVWGQGTTVTVSS VL: QSALTQPASVSGSPGQSITISCTGTSNDVGAYNRVSWYQQHPGKAPKLMIYGVSNRPSGVSNRFSGSKSGNTASLTISGLQAEDEADFYCTSYSSSTTSYVVFGGGTKVTVL | 100 | 2.37 | 100 | 12.7 | 100 | 10.8 | 100 | 6.19 | 100 | 2.92 | 100 | 20.4
4 | F20-VH-GL1-V1-V9-V14/B03-VL-GL1c (antibody, human IgG4 S228P, V domains shown) VH: EVQLVESGGGLVQPGRSLRLSCAASGFTFNDYPMHWVRQAPGKGLEWVSGISSQSGSVGYAESVKGRFTISRDNAKNSLYLQMNSLRAEDTALYYCARDKIYYGSGSYDFYYYYGIDVWGQGTTVTVSS VL: SSELTQDPAVSVALGQTVRITCQGDSLRSYYASWYQQKPGQAPVVVIYGKNNRPSGIPDRFSGSSSGNTVSLTITGAQAEDEADYYCQSRDNIGNHRVVLFGGGTKLTVL |  | > 500 |  | > 500 | 100 | 12.5 | 100 | 8.82 | 100 | 3.16 | 100 | 15.2
